According to patent US20140087995A1 (published 2014):
Numbered stars: 1 amine (or outer) side, 2 acyl side, 3 side chain; on linkers, the order of the positions; unused ones are H or OH. Bridge positions count the residues as written; N and C are the ends. Side chains are listed from the residue outwards. Ends that are not written are not given here. * marks the point of attachment. C20 diacid = O=C(O)CCCCCCCCCCCCCCCCCCC(=O)*; C18 diacid = O=C(O)CCCCCCCCCCCCCCCCC(=O)*; γGlu = O=C(O)[C@H](CCC(=O)[*:2])N[*:1]

T1: human calcitonin receptor (human, UniProt P30988 25-474)
T1 construct: whole, on cells; Used as membranes prepared from the transfected cells (Assay VII); also called hCTR; hCT
T1 sequence (looked up): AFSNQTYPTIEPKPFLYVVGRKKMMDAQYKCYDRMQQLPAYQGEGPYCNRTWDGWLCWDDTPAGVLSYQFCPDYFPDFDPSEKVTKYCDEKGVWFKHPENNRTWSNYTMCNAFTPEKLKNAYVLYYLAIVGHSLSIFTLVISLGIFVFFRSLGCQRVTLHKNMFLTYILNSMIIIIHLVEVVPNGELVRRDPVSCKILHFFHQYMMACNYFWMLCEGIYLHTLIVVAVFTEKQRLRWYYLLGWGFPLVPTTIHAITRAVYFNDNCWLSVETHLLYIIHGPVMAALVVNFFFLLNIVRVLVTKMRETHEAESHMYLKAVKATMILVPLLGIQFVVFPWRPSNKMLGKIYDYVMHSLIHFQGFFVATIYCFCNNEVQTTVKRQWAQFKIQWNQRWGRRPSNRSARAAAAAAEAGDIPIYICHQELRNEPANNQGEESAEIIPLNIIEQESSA

T2: rat calcitonin receptor (rat, UniProt P32214 25-516)
T2 construct: whole, on cells; Used as membranes prepared from the transfected cells (Assay VIII); also called rCTR; rat calcitonin (a) receptor
T2 sequence (looked up): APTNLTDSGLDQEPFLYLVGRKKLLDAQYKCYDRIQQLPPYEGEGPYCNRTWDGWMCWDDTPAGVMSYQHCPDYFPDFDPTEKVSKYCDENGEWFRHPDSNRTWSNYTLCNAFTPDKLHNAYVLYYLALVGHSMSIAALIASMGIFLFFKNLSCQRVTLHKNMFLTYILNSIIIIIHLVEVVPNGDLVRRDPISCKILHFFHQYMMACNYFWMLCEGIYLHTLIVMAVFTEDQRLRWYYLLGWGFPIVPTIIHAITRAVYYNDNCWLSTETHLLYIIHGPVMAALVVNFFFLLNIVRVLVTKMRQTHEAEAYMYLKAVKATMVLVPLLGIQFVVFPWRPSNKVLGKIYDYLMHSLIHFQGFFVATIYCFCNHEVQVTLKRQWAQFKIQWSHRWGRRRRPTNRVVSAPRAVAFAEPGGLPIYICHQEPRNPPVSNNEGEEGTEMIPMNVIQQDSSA

T3: rat amylin receptor (rat calcitonin receptor + rat RAMP 3) (rat, UniProt P32214 25-516; Q9JJ73 23-147)
T3 construct: whole, on cells; Used as membranes prepared from the transfected cells (Assay VI); also called rAmylin-R; rat amylin 3(a) receptor
T3 sequence (looked up) 1: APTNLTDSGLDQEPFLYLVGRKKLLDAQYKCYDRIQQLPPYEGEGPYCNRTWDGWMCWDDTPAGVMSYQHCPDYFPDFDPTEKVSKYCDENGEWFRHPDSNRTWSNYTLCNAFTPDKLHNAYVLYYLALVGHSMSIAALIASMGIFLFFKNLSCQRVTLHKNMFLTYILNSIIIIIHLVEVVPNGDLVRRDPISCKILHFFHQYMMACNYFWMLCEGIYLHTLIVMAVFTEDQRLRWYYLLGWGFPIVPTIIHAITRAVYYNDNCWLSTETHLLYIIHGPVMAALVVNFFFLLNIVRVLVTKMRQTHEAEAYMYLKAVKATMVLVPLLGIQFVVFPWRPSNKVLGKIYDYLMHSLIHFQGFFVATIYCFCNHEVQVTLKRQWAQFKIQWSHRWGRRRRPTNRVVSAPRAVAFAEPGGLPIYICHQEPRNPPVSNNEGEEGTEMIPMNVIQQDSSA
T3 sequence (looked up) 2: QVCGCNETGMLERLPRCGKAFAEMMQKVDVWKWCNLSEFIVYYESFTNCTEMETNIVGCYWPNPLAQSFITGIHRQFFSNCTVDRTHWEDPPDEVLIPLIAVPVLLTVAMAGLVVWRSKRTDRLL


Columns and labels:
[1] = target: T1, human calcitonin receptor; test: ratio of IC50 on human calcitonin receptor (Assay VII) to IC50 on human amylin receptor (Assay V)
Protocol: The resulting pellet was resuspended, homogenized and centrifuged (20.000 rpm, 15 min) in a buffer containing 20 mM Na-HEPES and 0.1 mM EDTA (pH 7.4, buffer 2). The resulting pellet was resuspended in buffer 2 and protein concentration was measured (BCA protein Assay, Pierce). The homogenate was kept cold during the whole procedure. The membranes were kept at −80° C. until use. The assay was performed in a 384 well Optiplate (PerkinElmer) in a total volume of 40 ul. Membranes were mixed with SPA beads. Final concentration of membranes 35 ng/μL final and SPA beads was 0.05 mg/well. Test-compounds were dissolved in DMSO and further diluted in assay buffer (50 mM Hepes, pH 7.4, 1 mM CaCl2, 5 mM MgCl₂, 0.1% OA and 0.02% Tween20). […] The final mixture was incubated with shaking at 400 rpm for 120 min at 25° C. prior to centrifugation (1500 rpm, 10 min). Samples were analyzed on TopCounter™ (Packard). The IC₅₀ was calculated using (one site binding competition analysis) GraphPad Prism5 as a measure of receptor affinity.
Membranes were prepared in the following way; the cells were rinsed with PBS and incubated with Versene for approximately 5 min before harvesting. The cells were flushed with PBS and the cell-suspension was centrifuged for 5 min at 1000 rpm. Cells were homogenized (Ultrathurrax) in a buffer containing 20 mM Na-HEPES and 10 mM EDTA (pH 7.4) and centrifuged at 20.000 rpm for 15 min. The resulting pellet was resuspended, homogenized and centrifuged (20.000 rpm, 15 min) in a buffer containing 20 mM Na-HEPES and 0.1 mM EDTA (pH 7.4, buffer 2). The resulting pellet was resuspended in buffer 2 and protein concentration was measured (BCA protein Assay, Pierce). The homogenate was kept cold during the whole procedure. The membranes were kept at −80° C. until use. Assay was performed in a 384 well Optiplate (PerkinElmer) in a total volume of 40 ul. Membranes were mixed with SPA beads.

[2] = target: T2, rat calcitonin receptor; test: SPA competition binding, displacement of 125I-calcitonin from membranes of BHK tk'ts 13 cells transfected with rat calcitonin receptor (Assay VIII)
[3] = target: T3, rat amylin receptor (rat calcitonin …); test: SPA competition binding, displacement of 125I-rat amylin from membranes of BHK tk'ts 13 cells transfected with rat calcitonin receptor + rat RAMP 3 (Assay VI)
[4] = target: T2, rat calcitonin receptor; test: ratio of IC50 on rat calcitonin receptor (Assay VIII) to IC50 on rat amylin receptor (Assay VI)

Binder	Ratio hCT/hAmylin binding [1]	IC50 [2] [nM]	IC50 [3] [nM]	Ratio rCT/rAmylin binding [4]
K([γGlu-C18 diacid])CNTATCATQRLANFLRHSSPNFGAIPSSTNVGHNTY-NH2 (disulfide 2-7; N-terminus assumed; SMILES CC[C@H](C)[C@H](NC(=O)[C@H](C)NC(=O)CNC(=O)[C@H](Cc1ccccc1)NC(=O)[C@H](CC(N)=O)NC(=O)[C@@H]1CCCN1C(=O)[C@H](CO)NC(=O)[C@H](CO)NC(=O)[C@H](Cc1c[nH]cn1)NC(=O)[C@H](CCCNC(=N)N)NC(=O)[C@H](CC(C)C)NC(=O)[C@H](Cc1ccccc1)NC(=O)[C@H](CC(N)=O)NC(=O)[C@H](C)NC(=O)[C@H](CC(C)C)NC(=O)[C@H](CCCNC(=N)N)NC(=O)[C@H](CCC(N)=O)NC(=O)[C@@H](NC(=O)[C@H](C)NC(=O)[C@@H]1CSSC[C@H](NC(=O)[C@@H](N)CCCCNC(=O)CC[C@H](NC(=O)CCCCCCCCCCCCCCCCC(=O)O)C(=O)O)C(=O)N[C@@H](CC(N)=O)C(=O)N[C@@H]([C@@H](C)O)C(=O)N[C@@H](C)C(=O)N[C@@H]([C@@H](C)O)C(=O)N1)[C@@H](C)O)C(=O)N1CCC[C@H]1C(=O)N[C@@H](CO)C(=O)N[C@@H](CO)C(=O)N[C@H](C(=O)N[C@@H](CC(N)=O)C(=O)N[C@H](C(=O)NCC(=O)N[C@@H](Cc1c[nH]cn1)C(=O)N[C@@H](CC(N)=O)C(=O)N[C@H](C(=O)N[C@@H](Cc1ccc(O)cc1)C(N)=O)[C@@H](C)O)C(C)C)[C@@H](C)O, not restated for each compound) [N^ε1-[(4S)-4-carboxy-4-(17-carboxyheptadecanoylamino)butanoyl]-[Arg17,Pro21,Pro27,His34]-h-amylin]	59.4	47	1.17	40.3
K([γGlu-C20 diacid])CNTATCATQRLADFLRHSSPNFGAIPSSTNVGPRTY-NH2 (disulfide 2-7; N-terminus assumed; SMILES CC[C@H](C)[C@H](NC(=O)[C@H](C)NC(=O)CNC(=O)[C@H](Cc1ccccc1)NC(=O)[C@H](CC(N)=O)NC(=O)[C@@H]1CCCN1C(=O)[C@H](CO)NC(=O)[C@H](CO)NC(=O)[C@H](Cc1c[nH]cn1)NC(=O)[C@H](CCCNC(=N)N)NC(=O)[C@H](CC(C)C)NC(=O)[C@H](Cc1ccccc1)NC(=O)[C@H](CC(=O)O)NC(=O)[C@H](C)NC(=O)[C@H](CC(C)C)NC(=O)[C@H](CCCNC(=N)N)NC(=O)[C@H](CCC(N)=O)NC(=O)[C@@H](NC(=O)[C@H](C)NC(=O)[C@@H]1CSSC[C@H](NC(=O)[C@@H](N)CCCCNC(=O)CC[C@H](NC(=O)CCCCCCCCCCCCCCCCCCC(=O)O)C(=O)O)C(=O)N[C@@H](CC(N)=O)C(=O)N[C@@H]([C@@H](C)O)C(=O)N[C@@H](C)C(=O)N[C@@H]([C@@H](C)O)C(=O)N1)[C@@H](C)O)C(=O)N1CCC[C@H]1C(=O)N[C@@H](CO)C(=O)N[C@@H](CO)C(=O)N[C@H](C(=O)N[C@@H](CC(N)=O)C(=O)N[C@H](C(=O)NCC(=O)N1CCC[C@H]1C(=O)N[C@@H](CCCNC(=N)N)C(=O)N[C@H](C(=O)N[C@@H](Cc1ccc(O)cc1)C(N)=O)[C@@H](C)O)C(C)C)[C@@H](C)O, not restated for each compound)	151	58.5	0.504	116
K([γGlu-C20 diacid])CNTATCATQRLAEFLRHSSPNFGAIPSSTNVGSHTY-NH2 (disulfide 2-7; N-terminus assumed; SMILES CC[C@H](C)[C@H](NC(=O)[C@H](C)NC(=O)CNC(=O)[C@H](Cc1ccccc1)NC(=O)[C@H](CC(N)=O)NC(=O)[C@@H]1CCCN1C(=O)[C@H](CO)NC(=O)[C@H](CO)NC(=O)[C@H](Cc1c[nH]cn1)NC(=O)[C@H](CCCNC(=N)N)NC(=O)[C@H](CC(C)C)NC(=O)[C@H](Cc1ccccc1)NC(=O)[C@H](CCC(=O)O)NC(=O)[C@H](C)NC(=O)[C@H](CC(C)C)NC(=O)[C@H](CCCNC(=N)N)NC(=O)[C@H](CCC(N)=O)NC(=O)[C@@H](NC(=O)[C@H](C)NC(=O)[C@@H]1CSSC[C@H](NC(=O)[C@@H](N)CCCCNC(=O)CC[C@H](NC(=O)CCCCCCCCCCCCCCCCCCC(=O)O)C(=O)O)C(=O)N[C@@H](CC(N)=O)C(=O)N[C@@H]([C@@H](C)O)C(=O)N[C@@H](C)C(=O)N[C@@H]([C@@H](C)O)C(=O)N1)[C@@H](C)O)C(=O)N1CCC[C@H]1C(=O)N[C@@H](CO)C(=O)N[C@@H](CO)C(=O)N[C@H](C(=O)N[C@@H](CC(N)=O)C(=O)N[C@H](C(=O)NCC(=O)N[C@@H](CO)C(=O)N[C@@H](Cc1c[nH]cn1)C(=O)N[C@H](C(=O)N[C@@H](Cc1ccc(O)cc1)C(N)=O)[C@@H](C)O)C(C)C)[C@@H](C)O, not restated for each compound)	26.4	26.3	1.16	22.7
K([γGlu-C20 diacid])CNTATCATQRLAEFLRHSSPNFGAIPSSTNVGPHTY-NH2 (disulfide 2-7, not restated for each compound)	21.2	5.43	0.104	52.2
K([γGlu-C20 diacid])CNTATCATQRLAEFLRHSSPNFGAIPSSTNVGRETY-NH2 (disulfide 2-7; N-terminus assumed; SMILES CC[C@H](C)[C@H](NC(=O)[C@H](C)NC(=O)CNC(=O)[C@H](Cc1ccccc1)NC(=O)[C@H](CC(N)=O)NC(=O)[C@@H]1CCCN1C(=O)[C@H](CO)NC(=O)[C@H](CO)NC(=O)[C@H](Cc1c[nH]cn1)NC(=O)[C@H](CCCNC(=N)N)NC(=O)[C@H](CC(C)C)NC(=O)[C@H](Cc1ccccc1)NC(=O)[C@H](CCC(=O)O)NC(=O)[C@H](C)NC(=O)[C@H](CC(C)C)NC(=O)[C@H](CCCNC(=N)N)NC(=O)[C@H](CCC(N)=O)NC(=O)[C@@H](NC(=O)[C@H](C)NC(=O)[C@@H]1CSSC[C@H](NC(=O)[C@@H](N)CCCCNC(=O)CC[C@H](NC(=O)CCCCCCCCCCCCCCCCCCC(=O)O)C(=O)O)C(=O)N[C@@H](CC(N)=O)C(=O)N[C@@H]([C@@H](C)O)C(=O)N[C@@H](C)C(=O)N[C@@H]([C@@H](C)O)C(=O)N1)[C@@H](C)O)C(=O)N1CCC[C@H]1C(=O)N[C@@H](CO)C(=O)N[C@@H](CO)C(=O)N[C@H](C(=O)N[C@@H](CC(N)=O)C(=O)N[C@H](C(=O)NCC(=O)N[C@@H](CCCNC(=N)N)C(=O)N[C@@H](CCC(=O)O)C(=O)N[C@H](C(=O)N[C@@H](Cc1ccc(O)cc1)C(N)=O)[C@@H](C)O)C(C)C)[C@@H](C)O, not restated for each compound)	28.5	86.1	1.06	81.1
